Where two headings read alike, the source gives them in different places.
Columns and labels:
[1] = molecular target: T1, T148-ADP-ribosylated-actin (100% TccC3-ADP-ribosylated actin) ( (purified from rabbit or …, UniProt P68135 1-377)); assay: FP
[2] = molecular target: T2, Skeletal actin, unmodified (0% ADPR-actin control) ( (purified from rabbit or …, UniProt P68135 1-377)); assay: FP
[3] = molecular target: T2, Skeletal actin, unmodified (0% …)
[4] = molecular target: T1, T148-ADP-ribosylated-actin (100% …)

SDKPDMAEIEKFDKSKLKKTETQEKNPLPSKETIEQEKQAGES (not fully specified; ADP-ribose on threonine-148 (T148))
Kd [1]: 2440 nM

SDKPDMAEIEKFDKSKLKKTETQEKNPLPSKETIEQEKQAGES (not fully specified)
Kd [2]: 380 nM

B1: Actin-depolymerizing factor (natural protein)
chain: MASGVQVADEVCRIFYDMKVRKCSTPEEIKKRKKAVIFCLSADKKCIIVEEGKEILVGDVGVTITDPFKHFVGMLPEKDCRYALYDASFETKESRKEELMFFLWAPELAPLKSKMIYASSKDAIKKKFQGIKHECQANGPEDLNRACIAEKLGGSLIVAFEGCPV
Kd [3]: 21.6 nM | Kd [4]: 331 nM

Reference: article PMC9266650 (2022)
